Measurements from paper PMC5241739, “Structure of the Toll/Interleukin-1 Receptor (TIR) Domain of the B-cell Adaptor That Links Phosphoinositide Metabolism with the Negative Regulation of the Toll-like Receptor (TLR) Signalosome*^([image sbox.jpg])” (The Journal of Biological Chemistry, 2016).

Molecular target: the molecule itself
Experiment: AUC; sedimentation velocity, Beckman XL-A, 0.3 to 1 mg/ml, 30,000–40,000 rpm, c(S) and c(M) analysis with SEDFIT

| Protein | stoichiometry N |
| --- | --- |
| Full-length BCAP, BCAPL (1–805) (natural protein, human, UniProt Q6ZUJ8-1 1-805, looked up, B-cell adaptor for phosphoinositide 3-kinase (BCAP), human, full-length form BCAPL, residues 1-805; Cloned into the same vector as the His6-tagged TIR domain; source: cloned into pMCSG7, purified (StrepTrap, S200 size exclusion)) MAASGVPRGCDILIVYSPDAEEWCQYLQTLFLSSRQVRSQKILTHRLGPEASFSAEDLSLFLSTRCVVVLLSAELVQHFHKPALLPLLQRAFHPPHRVVRLLCGVRDSEEFLDFFPDWAHWQELTCDDEPETYVAAVKKAISEDSGCDSVTDTEPEDEKVVSYSKQQNLPTVTSPGNLMVVQPDRIRCGAETTVYVIVRCKLDDRVATEAEFSPEDSPSVRMEAKVENEYTISVKAPNLSSGNVSLKIYSGDLVVCETVISYYTDMEEIGNLLSNAANPVEFMCQAFKIVPYNTETLDKLLTESLKNNIPASGLHLFGINQLEEEDMMTNQRDEELPTLLHFAAKYGLKNLTALLLTCPGALQAYSVANKHGHYPNTIAEKHGFRDLRQFIDEYVETVDMLKSHIKEELMHGEEADAVYESMAHLSTDLLMKCSLNPGCDEDLYESMAAFVPAATEDLYVEMLQASTSNPIPGDGFSRATKDSMIRKFLEGNSMGMTNLERDQCHLGQEEDVYHTVDDDEAFSVDLASRPPVPVPRPETTAPGAHQLPDNEPYIFKVFAEKSQERPGNFYVSSESIRKGPPVRPWRDRPQSSIYDPFAGMKTPGQRQLITLQEQVKLGIVNVDEAVLHFKEWQLNQKKRSESFRFQQENLKRLRDSITRRQREKQKSGKQTDLEITVPIRHSQHLPAKVEFGVYESGPRKSVIPPRTELRRGDWKTDSTSSTASSTSNRSSTRSLLSVSSGMEGDNEDNEVPEVTRSRSPGPPQVDGTPTMSLERPPRVPPRAASQRPPTRETFHPPPPVPPRGR | 2 |
| BCAPS, splice variant of BCAP (natural protein, human, UniProt Q6ZUJ8-2 1-627, looked up, The first residue is worked out from the legend's words 'lacks the first 180 amino acids'; source: cloned into pMCSG7, purified (StrepTrap, S200 size exclusion)) MVVQPDRIRCGAETTVYVIVRCKLDDRVATEAEFSPEDSPSVRMEAKVENEYTISVKAPNLSSGNVSLKIYSGDLVVCETVISYYTDMEEIGNLLSNAANPVEFMCQAFKIVPYNTETLDKLLTESLKNNIPASGLHLFGINQLEEEDMMTNQRDEELPTLLHFAAKYGLKNLTALLLTCPGALQAYSVANKHGHYPNTIAEKHGFRDLRQFIDEYVETVDMLKSHIKEELMHGEEADAVYESMAHLSTDLLMKCSLNPGCDEDLYESMAAFVPAATEDLYVEMLQASTSNPIPGDGFSRATKDSMIRKFLEGNSMGMTNLERDQCHLGQEEDVYHTVDDDEAFSVDLASRPPVPVPRPETTAPGAHQLPDNEPYIFKVFAEKSQERPGNFYVSSESIRKGPPVRPWRDRPQSSIYDPFAGMKTPGQRQLITLQEQVKLGIVNVDEAVLHFKEWQLNQKKRSESFRFQQENLKRLRDSITRRQREKQKSGKQTDLEITVPIRHSQHLPAKVEFGVYESGPRKSVIPPRTELRRGDWKTDSTSSTASSTSNRSSTRSLLSVSSGMEGDNEDNEVPEVTRSRSPGPPQVDGTPTMSLERPPRVPPRAASQRPPTRETFHPPPPVPPRGR | 2 |
| BCAP330, the first 330 residues of BCAPL (domain or fragment, human, UniProt Q6ZUJ8-1 1-330, looked up, B-cell adaptor for phosphoinositide 3-kinase (BCAP), human, the N-terminal 330 residues (TIR and DBB domains); also called N-terminal variant; source: cloned into pMCSG7, purified (StrepTrap, S200 size exclusion)) MAASGVPRGCDILIVYSPDAEEWCQYLQTLFLSSRQVRSQKILTHRLGPEASFSAEDLSLFLSTRCVVVLLSAELVQHFHKPALLPLLQRAFHPPHRVVRLLCGVRDSEEFLDFFPDWAHWQELTCDDEPETYVAAVKKAISEDSGCDSVTDTEPEDEKVVSYSKQQNLPTVTSPGNLMVVQPDRIRCGAETTVYVIVRCKLDDRVATEAEFSPEDSPSVRMEAKVENEYTISVKAPNLSSGNVSLKIYSGDLVVCETVISYYTDMEEIGNLLSNAANPVEFMCQAFKIVPYNTETLDKLLTESLKNNIPASGLHLFGINQLEEEDMMTN | 2 |
